According to paper PMC5643494, “TRPA1–FGFR2 binding event is a regulatory oncogenic driver modulated by miRNA-142-3p” (Nature Communications, 2017):

B1: GST fusion of FGFR2 residues 764-821 with P804A (C4) (domain or fragment, UniProt P21802 764-821, looked up)
chain: TTNEEYLDLSQPLEQYSPSYPDTRSSCSSGDDSVFSPDPMAYEPCLPQYPHINGSVKT
notes: FGFR2, last 58 amino acids, residues 764-821, P804A
B2: GST fusion of the last 58 amino acids of FGFR2 (residues 764-821), wild-type construct (C) (domain or fragment, UniProt P21802 764-821, looked up)
chain: TTNEEYLDLSQPLEQYSPSYPDTRSSCSSGDDSVFSPDPMPYEPCLPQYPHINGSVKT
notes: FGFR2, last 58 amino acids, residues 764-821; PGEX vector

Legend:
[1] = molecular target: TRPA1-GFP truncated of 5 ankyrin repeats (Δ5-GFP); assay: FRET or BRET; FLIM-FRET in fixed serum-starved HEK 293T cells co-expressing FGFR2-RFP with Δ5-GFP or Δ10-GFP; shift of GFP lifetime against empty GFP vector
[2] = molecular target: T1, purified full-length human TRPA1 (human, UniProt O75762 1-1119, biotinylated with EDC-based carboxyl-biotinylation reagent (streptavidin pull-down); labeled with Alexafluor 488 (MST); unlabelled in the GST pull-down); assay: pull-down; GST constructs on glutathione-sepharose beads incubated with purified full-length TRPA1; western blot; conditions: both partners purified
T1 construct: human TRPA1, full length; kept in PBS with 0.014% F-14; also called hTRPA1; full-length purified TRPA1; source: Pichia pastoris, purified (Ni-NTA)
T1 sequence (O75762 whole entry): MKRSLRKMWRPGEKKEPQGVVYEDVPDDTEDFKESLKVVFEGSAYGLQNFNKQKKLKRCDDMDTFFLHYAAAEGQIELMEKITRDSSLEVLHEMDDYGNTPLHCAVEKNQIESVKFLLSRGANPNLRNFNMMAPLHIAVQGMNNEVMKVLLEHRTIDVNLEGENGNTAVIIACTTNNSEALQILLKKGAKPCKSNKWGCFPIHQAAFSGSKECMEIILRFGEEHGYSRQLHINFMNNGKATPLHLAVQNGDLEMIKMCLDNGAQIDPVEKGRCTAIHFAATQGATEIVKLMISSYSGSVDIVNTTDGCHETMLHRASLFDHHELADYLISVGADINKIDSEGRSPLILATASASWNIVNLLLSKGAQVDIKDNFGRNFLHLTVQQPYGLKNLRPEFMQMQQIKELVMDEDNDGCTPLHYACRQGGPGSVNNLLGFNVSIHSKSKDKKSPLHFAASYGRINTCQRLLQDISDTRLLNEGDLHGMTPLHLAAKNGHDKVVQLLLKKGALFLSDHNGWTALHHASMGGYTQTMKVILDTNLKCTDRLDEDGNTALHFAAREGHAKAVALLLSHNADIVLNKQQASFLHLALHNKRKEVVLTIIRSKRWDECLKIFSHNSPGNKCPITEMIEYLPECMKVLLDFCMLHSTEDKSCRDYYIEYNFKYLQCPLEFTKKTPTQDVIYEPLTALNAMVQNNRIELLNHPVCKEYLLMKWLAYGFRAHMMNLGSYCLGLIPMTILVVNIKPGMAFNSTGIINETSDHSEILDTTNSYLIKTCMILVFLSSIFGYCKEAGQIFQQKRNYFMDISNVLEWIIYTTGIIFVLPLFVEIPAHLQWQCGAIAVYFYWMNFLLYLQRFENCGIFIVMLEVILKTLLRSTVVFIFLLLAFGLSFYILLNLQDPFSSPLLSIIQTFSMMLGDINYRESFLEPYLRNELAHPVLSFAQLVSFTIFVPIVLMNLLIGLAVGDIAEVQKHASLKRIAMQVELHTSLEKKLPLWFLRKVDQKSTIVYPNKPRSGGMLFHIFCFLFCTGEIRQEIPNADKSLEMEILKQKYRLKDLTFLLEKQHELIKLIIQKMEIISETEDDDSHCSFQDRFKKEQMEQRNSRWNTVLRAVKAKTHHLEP

Chain of TRPA1-GFP truncated of 5 ankyrin repeats (Δ5-GFP) (O75762 whole entry, stated change not applied, the tested form may be a part): as the sequence (O75762 whole entry) above

shift of GFP fluorescence lifetime (FLIM-FRET) [1] [ns]	binding result [2]	Molecule
0.09	–	FGFR2-RFP (from UniProt P21802 22-821) (receptor)
–	binds	B1
–	binds	B2
